Results published in US20220235344A1, “TRYPSIN VARIANTS WITH IMPROVED ENZYMATIC PROPERTIES” (BIOPHARMA TRANSLATIONSINSTITUT DESSAU FORSCHUNGS GMBH, priority 2018, published 2022).
Several values for one entry are separate records, joined by “and”; a condition that tells them apart may be missing. Identical values can stand only once.

How the values were obtained:
Type in all cases: biochemical
[1] = tested on: Bz-PGGYRAHAG-OH / RAHAK-OH (YRAH substrate); assay: Enzymatic activity and maximum product yield of Trypsiligase II-library variants, YRAH substrate; details: for AS A[YRAH]/AS A + H[YRAH] / YRAH/YRKH, quotient of max. product yield for YRAH subtrate/YRKH substrate: Table 3; for Pmax vs YRAH (%): Table 3, first column group
Method: (§1) Model transamidation reactions were performed in a solution containing 15 to 250 μM acyl donor, 2 eq. of the corresponding acyl acceptor, varying concentrations of trypsin variant, 100 mM HEPES/NaOH pH 7.8, ±0.1 mM ZnC12, 100 mM NaCl, 10 mM CaCl2) at 30° C. Acyl donor and acyl acceptor had the same amino acids in P1′-P3′ position, e.g. Bz-[…]+H-RAHAK-OH or Bz-[…]+H-RKKAK-OH. Variations are indicated. The acyl acceptor could be equipped with a 2,4-Dinitrophenyl group (DNP) at the side chain of the terminal lysine, e.g. H-RAHAK(DNP)-OH or H-RKKAK(DNP)-OH. The reactions were started by the addition of enzyme. To record the time course of product formation and/or for kinetic evaluation of the reaction several aliquots of the reaction mixture were quenched with 25% (v/v) acetic acid at distinct time points within up to 4 hours. The composition of the reaction mixture was analyzed by UPCL with method I or II, depending on the absence (method 1) or presence (method II) of a 2,4-dinitrophenyl group within the acyl acceptor (see example 1). Measurements were performed as duplicates and errors were less than 5%.
(§2) On the basis of these investigations the mutated positions of these two variants 2G10 and 1C11 have been combined in a new enzyme library based on trypsin variant Y39H/Y59H/K60E/D189K (Trypsiligase II), so that the variants resulting from this library benefit from both positive effects and are thus further optimized. Accordingly, positions 40, 55, 96, 97, 143, 151, 190, 192, 214, 219 and 221 were randomized in this Trypsiligase II library, while the mutation L99F was fixed because it was present in both Trypsiligase I libraries A and B. Positions 143 and 151 in Trypsiligase I are responsible for zinc complexation and thus convey histidine specificity for the recognition sequence YRH. In Trypsiligase II, this histidine specificity is shifted by positions 39 and 59, resulting in the recognition sequence YRAH. Thus, positions 143 and 151, which are potentially responsible for P2′ position specificity, are available for randomization in the Trypsiligase II library. In addition to the desired effect of increasing the affinity to the substrate/nucleophile, this could also lead to a possible independence of zinc complexation, which would be desirable with regard to the application-oriented modification of recombinant proteins. Using phage display and an ELISA-based screening, the Trypsiligase II variants illustrated in Table 3 and 4 have been identified.

[2] = tested on: Bz-PGGYRKHAG-OH / RKHAK-OH (YRKH substrate); assay: Enzymatic activity and maximum product yield of Trypsiligase II-library variants, YRKH substrate; details: for PPmax vs YRAH (%): 100 μM Bz-PGGYR(A/K)HAG-OH, 200 μM R(A/K)HAK-OH, 100 μM ZnCl2, pH 7.8, 30° C.
Method: as §1, §2

[3] = tested on: Bz-PGGYRKKAG-OH (acyl donor) / H-RKKAK-OH (acyl acceptor); assay: Model transamidation at high and low substrate concentrations, A2C8 and K7F11; details: for product yield (%) / kcat, AL^app (mkat/mol) / kcat, AL^app/kcat, HL^app / kcat, HL^app (mkat/mol): no ZnCl2
Method: as §1
The suitability of variant A2C8 and K7F11 as transamidases was further investigated in comparison to the native Trypsiligase II. Therefore the enzymatic parameters for the catalyzed transamidation reaction were determined by a model transamidation reaction using peptide substrates with the preferred recognition motive. In addition the model transamidation reaction was performed at high (250 μM) and low (15 μM) substrate concentrations to check, whether the new biocatalysts could also efficiently catalyze the desired reaction at low substrate concentration, which is a crucial requirement for the modification of therapeutic proteins. […] It was assumed that an improved transamidation activity is reached by introducing mutations which improve the affinity of the biocatalyst for the nucleophilic peptide and/or reduce its hydrolysis activity. Therefore corresponding experimental data describing both parameters for the native Trypsiligase II as well as variant A2C8 were determined.

[4] = tested on: R1-YRKH-R2 (Bz-PGGYRKHAG-OH) / H-RKHAK(DNP)-OH; assay: Zinc dependence of the transamidation reaction, A2C8 and K7F11, YRKH; details: 100 μM acyl donor, 200 μM acyl acceptor
Method: as §1

[5] = tested on: Bz-PGGYRAHAG-OH (acyl donor) / H-RAHAK(DNP)-OH (acyl acceptor); assay: Maximum product yield of transamidation (Table 7); details: Zinc ions (100 μM): no; two equivalents of acyl acceptor and 250 μM acyl donor
Method: as §1

[6] = tested on: H-RAHAK(DNP)-OH (acyl acceptor), acyl donor Bz-PGGYRAHAG-OH; assay: KM value of the nucleophilic peptide (acyl acceptor); details: for Km: Zinc ions: no, 250 μM Bz-PGGYRAHAG-OH, varying H-RAHAK(DNP)-OH
Method: For Trypsiligase II the measurements for KM values of the nucleophilic peptide (acyl acceptor) were carried out in the presence or absence of zinc ions due to its strong zinc ion dependency. In case of variant A2C8 measurements were carried out in the absence of zinc ions.
Transamidation reactions with Trypsiligase II and variant A2C8 were performed in a solution containing 250 μM of the acyl donor Bz-[…]-OH, varying concentrations of the acyl acceptor H-RAHAK(DNP)-OH (0-5000 μM for Trypsiligase II in the absence of zinc ions, 0-1500 μM for Trypsiligase II in the presence of zinc ions, 0-1000 μM for variant A2C8), 0.2-1.5 μM trypsin variant, 100 mM HEPES/NaOH pH 7.8, ±0.1 mM ZnCl2, 100 mM NaCl, 10 mM CaCl2 at 30° C. The reaction was started by the addition of enzyme. For kinetic evaluation of the reaction several aliquots of the reaction mixture were quenched with 25% (v/v) acetic acid at distinct time points within 30 minutes. The composition of the reaction mixture was analyzed by UPCL using method II (see example 1). UV absorption of the 2,4-Dinitrophenyl group (DNP), which is present in the acyl acceptor as well as in the aminolysis product, was detected at 360 nm. To determine the KM value of the nucleophilic peptide the initial rates for the aminolysis reaction were plotted against the corresponding acyl acceptor concentration and fitted to the Michaelis Menten equation. Measurements were performed as duplicates and errors were less than 5%.

[7] = 100 μM Bz-PGGYR(A/K)HAG-OH, 200 μM R(A/K)HAK-OH, 100 μM ZnCl2, pH 7.8, 30° C.
[8] = Table 3, group (YRAH), 100 μM ZnCl2
[9] = low substrate concentration (15 μM)

B1: A2C8: Trypsiligase II + H40F, A55A, R96E, K97D, L99F, N143E, E151Y, S190V, Q192A, S214G, G219Q, A221T (protein)
chain: IVGGYTCQENSVPYQVSLNSGHFFCGGSLINDQWVVSAAHCHESRIQVRLGEHNINVLEGNEQFVNAAKIIKHPNFDEDTFNNDIMLIKLSSPVKLNARVATVALPSSCAPAGTQCLISGWGETLSSGVNYPDLLQCLDAPLLPQADCEASYPGKITDNMVCVGFLEGGKKVCAGDSGGPVVCNGELQGIVGWGYQCTLPDNPGVYTKVCNYVDWIQDTIAAN
AS A[YRAH]/AS A + H[YRAH] [1]: 1.6
YRAH/YRKH, quotient of max. product yield for YRAH subtrate/YRKH substrate [1]: 1.0
Pmax vs YRAH (%) [1, 7]: 53.1%
AS A/H, quotient of aminolysis/hydrolysis activity ([1]; Table 3, group (YRAH)): 10.9
AS[AL] (mkat/mol), specific aminolysis activity [1, 8]: 15.8 mkat/mol
AS[HL] (mkat/mol), specific hydrolysis activity [1, 8]: 1.5 mkat/mol
AS A/H, quotient of aminolysis/hydrolysis activity ([2]; Table 3): 6.9
PPmax vs YRAH (%) ([2]; Table 3): 51.3%
AS[AL] (mkat/moL), specific aminolysis activity ([2]; Table 3, 100 μM ZnCl2): 8.9 mkat/moL
AS[HL] (mkat/moL), specific hydrolysis activity ([2]; Table 3, 100 μM ZnCl2): 1.3 mkat/moL
product yield (%) ([3]; [Substrate] 15 μM Bz-PGGYRKKAG-OH, 30 μM H-RKKAK-OH): 46% and 46.2%
kcat, AL^app (mkat/mol) ([3]; [Substrate] 15 μM): 10.68 mkat/mol
kcat, AL^app/kcat, HL^app ([3]; [Substrate] 15 μM): 7.4
kcat, HL^app (mkat/mol) ([3]; [Substrate] 15 μM): 1.44 mkat/mol
product yield (%) ([3]; [Substrate] 250 μM Bz-PGGYRKKAG-OH, 500 μM H-RKKAK-OH): 64.9%
kcat, AL^app (mkat/mol) ([3]; [Substrate] 250 μM): 71.61 mkat/mol
kcat, AL^app/kcat, HL^app ([3]; [Substrate] 250 μM): 70 and 70.9
kcat, HL^app (mkat/mol) ([3]; [Substrate] 250 μM): 1.01 mkat/mol
apparent turnover rate of aminolysis relative to hydrolysis [3, 9]: sevenfold higher apparent turnover rate
fold higher product yield than the native Trypsiligase II [3, 9]: 14
kcat, AL^app + Zn^2+ (mkat/mol) ([4]; 0.1 mM ZnCl2): 8.42 mkat/mol
product yield + Zn^2+ (%) ([4]; 0.1 mM ZnCl2): 55.0%
kcat, AL^app − Zn^2+ (mkat/mol) ([4]; absence of zinc ions): 16.92 mkat/mol
product yield − Zn^2+ (%) ([4]; absence of zinc ions): 57.6%
product yield (%) [5]: 59.7%
improvement of the enzyme affinity for the nucleophilic peptide versus native Trypsiligase II (factor) ([6]; Trypsiligase II in the absence of zinc ions): 92
improvement of the enzyme affinity for the nucleophilic peptide versus native Trypsiligase II (factor) ([6]; Trypsiligase II in the presence of zinc ions): 8
Km [6]: 17.6 µM

B2: Trypsiligase II (trypsin variant Y39H/Y59H/K60E/D189K) (protein)
chain: IVGGYTCQENSVPYQVSLNSGHHFCGGSLINDQWVVSAAHCHESRIQVRLGEHNINVLEGNEQFVNAAKIIKHPNFDRKTLNNDIMLIKLSSPVKLNARVATVALPSSCAPAGTQCLISGWGNTLSSGVNEPDLLQCLDAPLLPQADCEASYPGKITDNMVCVGFLEGGKKSCQGDSGGPVVCNGELQGIVSWGYGCALPDNPGVYTKVCNYVDWIQDTIAAN
AS A[YRAH]/AS A + H[YRAH] [1]: 0.1
YRAH/YRKH, quotient of max. product yield for YRAH subtrate/YRKH substrate [1]: 6.0
Pmax vs YRAH (%) [1, 7]: 8.9%
AS A/H, quotient of aminolysis/hydrolysis activity ([1]; Table 3, group (YRAH)): 0.3
AS[AL] (mkat/mol), specific aminolysis activity [1, 8]: 2.4 mkat/mol
AS[HL] (mkat/mol), specific hydrolysis activity [1, 8]: 7.8 mkat/mol
AS A/H, quotient of aminolysis/hydrolysis activity ([1]; Table 4): 0.3
PPmax vs YRAH (%) ([1]; Table 4, 100 μM Bz-PGGYR(A/K)HAG-OH, 200 μM R(A/K)HAK-OH, 100 μM ZnCl2, pH 7.8, 30° C.): 8.9%
AS[AL] (mkat/moL), specific aminolysis activity ([1]; Table 4, 100 μM ZnCl2): 2.4 mkat/moL
AS[HL] (mkat/moL), specific hydrolysis activity ([1]; Table 4, 100 μM ZnCl2): 7.8 mkat/moL
AS A/H, quotient of aminolysis/hydrolysis activity ([2]; Table 3): 0.0
PPmax vs YRAH (%) ([2]; Table 3): 1.5%
AS[AL] (mkat/moL), specific aminolysis activity ([2]; Table 3, 100 μM ZnCl2): 0.5 mkat/moL
AS[HL] (mkat/moL), specific hydrolysis activity ([2]; Table 3, 100 μM ZnCl2): 16.3 mkat/moL
AS A/H, quotient of aminolysis/hydrolysis activity ([2]; Table 4): 0.0
AS A[YRAH]/AS A + H[YRAH] ([2]; Table 4): 0.0
YRAH/YRKH, quotient of max. product yield ([2]; Table 4): 0.2
PPmax vs YRAH (%) ([2]; Table 4): 1.5%
AS[AL] (mkat/mol), specific aminolysis activity ([2]; Table 4, 100 μM ZnCl2): 0.5 mkat/mol
AS[HL] (mkat/mol), specific hydrolysis activity ([2]; Table 4, 100 μM ZnCl2): 16.3 mkat/mol
product yield (%) [5]: 4.2%
Km [6]: 1630 µM
